Here are results for one substance from paper PMC11133340.

The term stoichiometry N denotes a count of units in the complex or per binding partner.

The assay has as its target PSII-ACPII monomer (one PSII core monomer with six ACPII subunits and CCPII-S) (Chroomonas placoidea (endogenous in C. placoidea T11)). As to the kind of experiment: cryo-EM structure; single-particle cryo-EM of the native PSII-ACPII supercomplex co-purified from C. placoidea thylakoids; 25 mM Hepes-KOH pH 7.5, 1 mM CaCl2, 0.012% α-DDM; C2 symmetry, 2.47 Å overall; local refinement of the peripheral ACPIIs to 2.84 Å.

Turning to “PSII-ACPII monomer (one PSII core monomer with six ACPII subunits and CCPII-S) (from UniProt A0A222AI37 1-351; A0A222AIE3 1-509; A0A222AI36 1-461; A0A222AI74 1-84; A0A222AI51 1-42; A0A222AIE4 1-67; A0A222AI80 1-38; A0A222AI54 1-39; A0A222AIA0 1-45; A0A222AI58 1-38; A0A222AID2 1-32; A0A222AI61 1-39; A0A222AI96 1-62; A0A222AI35 1-163) (complex)”, the stoichiometry N worked out at 2.
